Measured values from patent publication US20060035332.

How the values were obtained:
[1] = biological target: human OT7T022 receptor (human); assay: competition, 125I-Tyr-hRFRP-3(8), pH 7.5, room temperature; details: modification not given
[2] = biological target: human OT7T022 receptor (human); assay: competition; details: modification not given

Sequence of human OT7T022 receptor (human) (chain, as listed by the source): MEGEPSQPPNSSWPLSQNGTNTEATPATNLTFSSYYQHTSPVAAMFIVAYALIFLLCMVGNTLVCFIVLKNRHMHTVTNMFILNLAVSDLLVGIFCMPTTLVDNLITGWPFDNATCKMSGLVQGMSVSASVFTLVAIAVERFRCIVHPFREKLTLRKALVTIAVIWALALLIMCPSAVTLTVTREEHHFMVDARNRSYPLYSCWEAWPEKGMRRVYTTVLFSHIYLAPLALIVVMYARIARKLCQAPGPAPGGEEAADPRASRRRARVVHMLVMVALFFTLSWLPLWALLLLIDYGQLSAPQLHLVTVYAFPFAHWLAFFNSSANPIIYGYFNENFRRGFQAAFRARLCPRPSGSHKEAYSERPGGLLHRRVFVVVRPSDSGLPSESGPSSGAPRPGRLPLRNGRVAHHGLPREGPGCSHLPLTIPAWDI

Binder | IC50 [1] [nM] | IC50 [2] [nM]
SAGATANLPLRSGRNMEVSLVRRVPNLPQRF [hRFRP-3(31)] | 1.3 | 
NLPQRF [hRFRP-3(6)] |  | 2.6
PNLPQRF [hRFRP-3(7)] |  | 0.62

Other lines, results leading:

IC50 [1] [nM] | IC50 [2] [nM] | Binder
1.1 |  | ATANLPLRSGRNMEVSLVRRVPNLPQRF [hRFRP-3(28)]
2.1 |  | LPQRF [hRFRP-3(5)]
